Target: T1, GST-DRG9Nip (Oryza sativa ssp. japonica cv. Nipponbare) (UniProt Q69P58)
T1 sequence: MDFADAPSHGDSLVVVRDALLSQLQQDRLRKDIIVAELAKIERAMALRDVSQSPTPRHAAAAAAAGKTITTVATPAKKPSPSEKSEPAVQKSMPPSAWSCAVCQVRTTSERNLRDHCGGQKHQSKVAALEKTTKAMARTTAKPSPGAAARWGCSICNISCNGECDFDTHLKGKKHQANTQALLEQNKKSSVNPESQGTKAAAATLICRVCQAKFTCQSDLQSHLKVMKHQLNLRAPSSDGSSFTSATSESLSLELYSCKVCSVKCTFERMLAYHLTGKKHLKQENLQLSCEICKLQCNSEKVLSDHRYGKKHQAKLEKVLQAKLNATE
Assay: EMSA
Details: 20 mM Hepes pH 7.5, 20 mM KCl2 (so in the source), 1 mM MgCl2, 10 mM ZnCl2, 5 mM DTT, 10% glycerol, 0.1% NP-40, room temperature, 1 h; 6% native PAGE, 0.5x TBE

Sequence: GGGCUCAAAUUAAUUAGCCAGUGAAAAAUCAAAUUACAGAGUUGCUUAAUUUUUUUACUAGUAGAACGCAACAGUAAAAAGAAUUAACAGCAGUGAAUUAUUAGUUAAUUAGCUAGGGAGUUGAAAUAGUUUAGCGGUCAUGCACUACUGAUUUUUAAUUAGUGCAGACAACGACCGCGUGUGUGUAUAUGCAUGUAUACCUUUUACUGUAUCUUCAGAUUGUGUAUAUAUAUCAUAUAUGUACAGGAAAAGAUUUAUAUAUCAUACAUAUUUUGUUGU [OsNCED4 3'-UTR RNA]
- binding: binds

— article PMC10957929
